The source of these data is PMC9433777.

Assay [1] has as its target HIV-1 envelope Du422.01 (subtype C) (HIV-1).
The target of assay [2] is HIV-1 envelope CAP210.E8 (subtype C) (HIV-1).
Assay [3] concerns the target HIV-1 envelope QH0692.42 (subtype B) (HIV-1).
Assay [4] deals with HIV-1 envelope TRO.11 (subtype B) (HIV-1).
Assay [5] addresses HIV-1 envelope ZM197.7 (subtype C) (HIV-1).
The target in assay [6] is HIV-1 envelope Q842.d12 (subtype A) (HIV-1).
Assay [7] addresses HIV-1 envelope Q168.a2 (subtype A) (HIV-1).
Assay [8] has as its target HIV-1 envelope Du156.12 (subtype C) (HIV-1).
For assay [9], the target named is HIV-1 envelope CAP214.15 (subtype C) (HIV-1).
For assay [10], the target named is HIV-1 envelope Q461.e2 (subtype A) (HIV-1).
Assay [11] concerns the target HIV-1 envelope Q23.17 (subtype A) (HIV-1).
Assay [12] concerns the target HIV-1 envelope 6535 (subtype B) (HIV-1).
Assay [13] concerns the target HIV-1 envelope CAP45.G3 (subtype C) (HIV-1).
Assay [14] deals with HIV-1 envelope Du172.17 (subtype C) (HIV-1).
In assay [15] the target is HIV-1 envelope ZM233.6 (subtype C) (HIV-1).

Some results are limits rather than exact numbers.

In the case of “CAP256-VRC26.25 produced in N. benthamiana (ΔXTFT) with Cas9/sgRNAs coexpression (antibody)”, the IC50 of neutralisation of HIV-1 pseudovirus, TZM-bl assay was 0.2 µg/mL in assay [1]; 0.0014 µg/mL in assay [2]; over 50 µg/mL in [3]; over 50 µg/mL in assay [4]; 0.098 µg/mL in assay [5]; over 50 µg/mL in assay [6]. The IC50 of neutralisation of HIV-1 pseudovirus, TZM-bl assay is 3.05 µg/mL in assay [7]; 0.041 µg/mL in [8]; 2.77 µg/mL in assay [9]; 1.61 µg/mL in assay [10]; 0.0016 µg/mL in [11]; over 50 µg/mL in [12]. The IC50 of neutralisation of HIV-1 pseudovirus, TZM-bl assay in assay [13] is 0.0013 µg/mL; in assay [14] it was over 50 µg/mL; in assay [15], 0.005 µg/mL.
As to “CAP256-VRC26.25 produced in HEK293 (antibody)”, the IC50 of neutralisation of HIV-1 pseudovirus, TZM-bl assay in assay [1] was 0.11 µg/mL; in assay [2], 0.0012 µg/mL; in [3], over 50 µg/mL; in assay [4], over 50 µg/mL; in [5], 0.11 µg/mL; in assay [6], over 50 µg/mL. Moreover, the IC50 of neutralisation of HIV-1 pseudovirus, TZM-bl assay in assay [7] was 1.73 µg/mL; in [8] it was 0.15 µg/mL; in assay [9] it was 3.12 µg/mL; in [10] it was 0.67 µg/mL; in [11], 0.0014 µg/mL; in assay [12], over 50 µg/mL. Also, the IC50 of neutralisation of HIV-1 pseudovirus, TZM-bl assay is 0.0013 µg/mL in [13], over 50 µg/mL in assay [14] and 0.0044 µg/mL in [15].
As to “CAP256-VRC26.25 produced in N. benthamiana (ΔXTFT) without Cas9/sgRNAs coexpression (antibody)”, the IC50 of neutralisation of HIV-1 pseudovirus, TZM-bl assay in assay [1] was 0.1 µg/mL; in [2] it was 0.0015 µg/mL; in assay [3], over 50 µg/mL; in assay [4], over 50 µg/mL; in [5], 0.056 µg/mL; in assay [6] it was over 50 µg/mL. The IC50 of neutralisation of HIV-1 pseudovirus, TZM-bl assay is 2.94 µg/mL in assay [7]; 0.034 µg/mL in assay [8]; 4.31 µg/mL in assay [9]; 1.73 µg/mL in assay [10]; 0.0016 µg/mL in assay [11]; over 50 µg/mL in assay [12]. The figures for the IC50 of neutralisation of HIV-1 pseudovirus, TZM-bl assay in assay [13], in [14] and in assay [15] were 0.0014 µg/mL, over 50 µg/mL and 0.0042 µg/mL, respectively.
